# According to US7897569B2, “Use of HMGB fragments as anti-inflammatory agents” (The Feinstein Institute for Medical Research, priority 2001, dated 2011):
# B1: B box: Human HMGB1 mutant containing only the B box, SEQ ID NO:20 (protein)
# chain: FKDPNAPKRLPSAFFLFCSEYRPKIKGEHPGLSIGDVAKKLGEMWNNTAADDKQPYEKKAAKLKEKYEKDIAAY
# B2: A box: Human HMGB1 mutant containing only the A box, SEQ ID NO:21 (A box SEQ ID NO:22) (protein)
# chain: MGKGDPKKPTGKMSSYAFFVQTCREEHKKKHPDASVNFSEFSKKCSERWKTMSAKEKGKFEDMAKADKARYEREMKTYIPPKGET
# B3: HMGB1: Recombinant full length human HMGB1, GST fusion system, SEQ ID NO:18; recombinant rat HMGB1 used in some experiments (protein)
# chain: MGKGDPKKPTGKMSSYAFFVQTCREEHKKKHPDASVNFSEFSKKCSERWKTMSAKEKGKFEDMAKADKARYEREMKTYIPPKGETKKKFKDPNAPKRLPSAFFLFCSEYRPKIKGEHPGLSIGDVAKKLGEMWNNTAADDKQPYEKKAAKLKEKYEKDIAAYRAKGKPDAAKKGVVKAEKSKKKKEEEEDEEDEEDEEEEEDEEDEEDEEEDDDDE
# modifications: GST fusion
# notes: recombinant rat HMGB1 used in some experiments
# Assays:
# [1] = test system: NF-kB-dependent ELAM promoter; test: NF-kB-dependent ELAM promoter luciferase reporter in RAW 264.7 macrophages; assay type: cell-based, murine; details: HMGB1 100 ng/ml or B box 10 μg/ml, 5 hours; for level of luciferase stimulation: co-transfected with MyD 88 dominant negative
# Experimental: To examine the effects of HMGB1 or HMGB1 B Box on the NF-kB-dependent ELAM promoter, the following experiment was carried out. RAW 264.7 macrophages were transiently co-transfected with an expression plasmid encoding a murine MyD 88-dominant-negative (DN) mutant (corresponding to amino acids 146-296), or empty vector, plus a luciferase reporter plasmid under the control of the NF-kB-dependent ELAM promoter, as described by Means et al. (J. Immunol. 166:4074-4082, 2001). A portion of the cells were then stimulated with full-length HMBG1 (100 ng/ml), or purified HMGB1 B box (10 μg/ml), for 5 hours. Cells were then harvested and luciferase activity was measured, using standard methods. All transfections were performed in triplicate, repeated at least three times, and a single representative experiment is shown in FIG. 11B.
# [2] = biological target: T1, human Toll-like receptor 4 (TLR4) (Homo sapiens, UniProt O00206); test: CD25 expression in CHO/TLR2 and CHO/TLR4 ELAM-CD25 reporter cells (flow cytometry); assay type: cell-based; details: CHO/TLR4 cells versus CHO/TLR2; HMG-1 100 ng/ml or B box 10 μg/ml, 18 hours
# T1 construct: expressed in transfected cells; host or cells: CHO (CHO/TLR4, ELAM-CD25 reporter)
# T1 sequence (O00206 24-839): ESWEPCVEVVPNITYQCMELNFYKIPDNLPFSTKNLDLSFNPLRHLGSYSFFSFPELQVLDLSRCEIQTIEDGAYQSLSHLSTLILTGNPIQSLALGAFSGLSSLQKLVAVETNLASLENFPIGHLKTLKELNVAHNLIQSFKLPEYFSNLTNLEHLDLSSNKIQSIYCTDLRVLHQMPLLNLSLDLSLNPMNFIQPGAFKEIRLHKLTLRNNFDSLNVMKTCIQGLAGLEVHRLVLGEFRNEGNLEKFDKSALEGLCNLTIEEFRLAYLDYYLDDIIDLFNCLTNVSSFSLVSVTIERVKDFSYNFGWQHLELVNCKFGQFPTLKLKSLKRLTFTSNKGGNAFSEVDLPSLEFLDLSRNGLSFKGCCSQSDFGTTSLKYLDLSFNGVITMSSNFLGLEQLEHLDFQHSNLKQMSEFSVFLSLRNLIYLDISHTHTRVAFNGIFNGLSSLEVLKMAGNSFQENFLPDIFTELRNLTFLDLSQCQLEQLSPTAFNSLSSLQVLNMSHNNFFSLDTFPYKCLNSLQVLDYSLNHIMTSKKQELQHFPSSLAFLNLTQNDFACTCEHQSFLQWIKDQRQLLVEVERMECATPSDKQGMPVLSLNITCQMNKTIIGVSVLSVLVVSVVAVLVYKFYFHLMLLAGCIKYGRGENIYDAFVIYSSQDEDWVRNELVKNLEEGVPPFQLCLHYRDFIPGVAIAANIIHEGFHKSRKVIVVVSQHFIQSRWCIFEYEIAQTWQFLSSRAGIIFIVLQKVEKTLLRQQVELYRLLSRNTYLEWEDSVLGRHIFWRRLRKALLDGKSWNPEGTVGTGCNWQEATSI
# Experimental: The effect of HMGB1 or HMGB1 B box on NF-kB activation was also examined. CHO reporter cell lines that constitutively express human Toll-like receptor 2 (TLR2) or Toll-like receptor 4 (TLR4) have been previously described (Means et al., J. Immunology, 163:3920-3927, 1999). These reporter lines also contain a stably transfected ELAM-CD25 reporter gene, and express human CD25 on their surface as a consequence of NF-kB activation. CHO/TLR2 and CHO/TLR4 cells were stimulated with IL-1 (10 ng/ml), purified full-length HMG-1 (100 ng/ml), or purified B box (10 μg/ml) for 18 hours. Following stimulation, cells were stained with a PE-labeled anti-CD25 monoclonal antibody and surface expression of CD25 was measured by flow cytometry. The results of this study are shown ib FIG. 11C. Data are expressed as the ratio (fold-activation) of the percent of CD25^+ cells in unstimulated and stimulated cell populations that were gated to exclude the lowest 5% of cells based on mean FL1 fluorescence.
# RAW 264.7 cells = test: TNF release from RAW 264.7 cells (L929 cytotoxicity bioassay); assay type: cell-based, murine; details: for TNF release: 1 μg/ml protein, RAW 264.7 cells
# Experimental: Murine macrophage-like RAW 264.7 cells (American Type Culture Collection, Rockville, Md.) were cultured in RPMI 1640 medium (Life Technologies, Grand Island N.Y.) supplemented with 10% fetal bovine serum (Gemini, Catabasas, Calif.), penicillin and streptomycin (Life Technologies) and were used at 90% confluence in serum-free Opti-MEM I medium (Life Technologies, Grand Island, N.Y.). […] Polymyxin B was not used in experiments of synthetic peptide studies.
# TNF release was measured by a standard murine fibroblast L929 (ATCC, American Type Culture Collection, Rockville, Md.) cytotoxicity bioassay (Bianchi et al., Journal of Experimental Medicine 183:927-936, 1996) with the minimum detectable concentration of 30 pg/ml. Recombinant mouse TNF was obtained from R&D system Inc., (Minneapolis, Minn.). Murine fibroblast L929 cells (ATCC) were cultured in DMEM (Life Technologies, Grand Island, N.Y.) supplemented with 10% fetal bovine serum (Gemini, Catabasas, Calif.), penicillin (50 units/ml) and streptomycin (50 μg/ml) (Life Technologies) in a humidified incubator with 5% CO2.
# The effect of the mutants on TNF release from Murine macrophage-like RAW 264.7 cells (ATCC) was carried out as follows. RAW 264.7 cells were cultured in RPMI 1640 medium (Life Technologies, Grand Island N.Y.) supplemented with 10% fetal bovine serum (Gemini, Catabasas, Calif.), penicillin and streptomycin (Life Technologies). Polymyxin (Sigma, St. Louis, Mo.) was added at 100 units/ml to suppress the activity of any contaminating LPS. Cells were incubated with 1 μg/ml of full length (wild-type) HMGB1 and each HMGB1 mutant protein in Opti-MEM I medium for 8 hours, and conditioned supernatants (containing TNF which had been released from the cells) were collected and TNF released from the cells was measured by a standard murine fibroblast L929 (ATCC) cytotoxicity bioassay (Bianchi et al., supra) with the minimum detectable concentration of 30 pg/ml. Recombinant mouse TNF was obtained from R & D Systems Inc., (Minneapolis, Minn.) and used as control in these experiments. Data in FIG. 1 are all presented as mean+SEM unless otherwise indicated. (N=6-10).
# To further examine the effect of HMGB1 B box on cytokine production, varying amounts of HMGB1 B box were evaluated for the effects on TNF, IL-1 B, and IL-6 production in murine macrophage-like RAW 264.7 cells. Conditioned media were harvested and measured for TNF, IL-1β and IL-6 levels. TNF levels were measured as described herein, and IL-1β and IL-6 levels were measured using the mouse IL-1β and IL-6 enzyme-linked immunosorbent assay (ELISA) kits (R&D System Inc., Minneapolis, Minn.) and N>5 for all experiments.
# The kinetics of B box-induced TNF release was also examined. TNF release and TNF mRNA expression was measured in RAW 264.7 cells induced by B box polypeptide or GST tag polypeptide only used as a control (vector) (10 μg/ml) for 0 to 48 hours. Supernatants were analyzed for TNF protein levels by an L929 cytotoxicity assay (N=3-5) as described herein. For mRNA measurement, cells were plated in 100 mm plate and treated in Opti-MEM I medium containing B box polypeptide or the vector alone for 0, 4, 8, or 24 hours, as indicated in FIG. 2D. The vector only sample was assayed at the 4 hour time point. Cells were scraped off the plate and total RNA was isolated by RNAzol B method in accordance with the manufacturer's instructions (Tel-Test “B”, Inc., Friendswood, Tex.). TNF (287 bp) was measured by RNase protection assay (Ambion, Austin, Tex.). Equal loading and the integrity of RNA was verified by ethidium bromide staining of the RNA sample on agarose-formaldehyde gel. […] TNF mRNA expression was maximal at 4 hours and decreased at 8 and 24 hours. […] A similar study was carried out measuring TNF protein released from RAW 264.7 cells 0, 4, 8, 24, 32 or 48 hours after administration of B box or vector only (GST tag), using the L929 cytotoxicity assay described herein. […] Data are representative of three separate experiments. […]
luciferase activity ([1]; not co-transfected with MyD 88 dominant negative),Molecule,level of luciferase stimulation [1],CD25 expression [2],TNF release (RAW 264.7 cells; 8 hours),"TNF protein expression compared to medium only (RAW 264.7 cells; 10 μg/ml, 0-48 hours)","time of maximum TNF protein release (RAW 264.7 cells; 10 μg/ml, 0-48 hours) [h]","TNF release, dose dependence (RAW 264.7 cells; B box 0-10 μg/ml, 8 hours)"
,B1,This effect was also observed,decreased CD25 expression compared to the CHO/TLR2 samples,potent activator of monocyte TNF release,stimulated TNF protein expression,≤ 8,increased with increased amounts of B box
,B2,,,only weakly activated TNF release,,,
stimulated luciferase activity,B3,decreased,decreased CD25 expression compared to the CHO/TLR2 samples,significantly stimulated TNF release,,,
